Laboratory results reported in US20100086943.

System: fusion protein comprising the c-myc tag, a generic substrate recognized by the serine/threonine kinases and the FLAG tag, expressed from the pSEMS plasmid (Snaptag)

Substance | phosphorylation of the substrate measured by TR-FRET after activation by ionomycin | phosphorylation of the substrate measured by TR-FRET (delta F)
Cam kinase II (expressed from CamKII delta-pcDNA 3.1) | in the presence of ionomycin, the signal measured is much greater than in its absence | 
kinase Akt1 (expressed from Akt1-pcDNA 3.1) |  | The co-transfection with the plasmid coding for the protein substrate and the plasmid coding for the kinase Akt1 makes it possible to increase the quantity of protein substrate phosphorylated specifically by Akt1
